Measured values: IntAct's records for PubMed 22921914

B1: Protein SCARECROW (Arabidopsis thaliana (Mouse-ear cress)), Q9M384 (parent)
chain: MAESGDFNGGQPPPHSPLRTTSSGSSSSNNRGPPPPPPPPLVMVRKRLASEMSSNPDYNNSSRPPRRVSHLLDSNYNTVTPQQPPSLTAAATVSSQPNPPLSVCGFSGLPVFPSDRGGRNVMMSVQPMDQDSSSSSASPTVWVDAIIRDLIHSSTSVSIPQLIQNVRDIIFPCNPNLGALLEYRLRSLMLLDPSSSSDPSPQTFEPLYQISNNPSPPQQQQQHQQQQQQHKPPPPPIQQQERENSSTDAPPQPETVTATVPAVQTNTAEALRERKEEIKRQKQDEEGLHLLTLLLQCAEAVSADNLEEANKLLLEISQLSTPYGTSAQRVAAYFSEAMSARLLNSCLGIYAALPSRWMPQTHSLKMVSAFQVFNGISPLVKFSHFTANQAIQEAFEKEDSVHIIDLDIMQGLQWPGLFHILASRPGGPPHVRLTGLGTSMEALQATGKRLSDFADKLGLPFEFCPLAEKVGNLDTERLNVRKREAVAVHWLQHSLYDVTGSDAHTLWLLQRLAPKVVTVVEQDLSHAGSFLGRFVEAIHYYSALFDSLGASYGEESEERHVVEQQLLSKEIRNVLAVGGPSRSGEVKFESWREKMQQCGFKGISLAGNAATQATLLLGMFPSDGYTLVDDNGTLKLGWKDLSLLTASAWTPRS
partner: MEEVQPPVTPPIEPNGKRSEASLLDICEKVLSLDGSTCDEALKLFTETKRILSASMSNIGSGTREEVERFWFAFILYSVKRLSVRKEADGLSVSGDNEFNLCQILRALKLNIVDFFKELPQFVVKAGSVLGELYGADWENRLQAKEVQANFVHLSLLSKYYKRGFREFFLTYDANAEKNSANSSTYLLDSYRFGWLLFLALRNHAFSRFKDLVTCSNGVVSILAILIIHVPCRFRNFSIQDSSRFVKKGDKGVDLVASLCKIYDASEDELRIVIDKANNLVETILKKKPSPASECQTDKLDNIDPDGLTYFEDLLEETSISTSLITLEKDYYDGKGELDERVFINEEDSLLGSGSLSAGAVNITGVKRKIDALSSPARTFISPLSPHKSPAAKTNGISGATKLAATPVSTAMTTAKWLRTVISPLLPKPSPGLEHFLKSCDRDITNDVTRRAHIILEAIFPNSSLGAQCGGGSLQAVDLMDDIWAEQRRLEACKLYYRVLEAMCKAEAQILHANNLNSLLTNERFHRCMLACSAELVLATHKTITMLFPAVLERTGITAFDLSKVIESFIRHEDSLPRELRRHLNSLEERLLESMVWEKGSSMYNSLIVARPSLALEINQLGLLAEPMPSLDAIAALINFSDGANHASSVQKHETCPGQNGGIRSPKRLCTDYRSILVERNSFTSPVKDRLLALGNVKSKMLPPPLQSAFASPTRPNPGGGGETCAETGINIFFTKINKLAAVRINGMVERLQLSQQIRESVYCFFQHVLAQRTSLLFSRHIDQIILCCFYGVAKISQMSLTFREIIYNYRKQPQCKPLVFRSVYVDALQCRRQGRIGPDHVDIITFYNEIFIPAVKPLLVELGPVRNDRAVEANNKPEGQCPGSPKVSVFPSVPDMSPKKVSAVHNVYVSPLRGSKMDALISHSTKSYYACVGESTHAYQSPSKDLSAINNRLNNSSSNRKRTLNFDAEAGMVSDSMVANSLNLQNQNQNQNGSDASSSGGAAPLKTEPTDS

Variants of: B1
Details: with rbr1_arath RBR1, Q9LKZ3

effect of a mutation on the interaction	Variant
disrupting interaction strength	L295A;E299A
